The chains are these.
T1: SrbA161-267 (bHLHZ DNA-binding domain) (Aspergillus fumigatus, UniProt Q4WIN1 161-267)
T1 sequence: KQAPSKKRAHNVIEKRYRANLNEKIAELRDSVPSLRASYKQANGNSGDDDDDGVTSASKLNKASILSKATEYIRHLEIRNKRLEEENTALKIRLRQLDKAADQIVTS

B1: srbApmm0 (srbA -735 to -726) (dsDNA)
DNA 1: TTCCCGCGATCATACGATGTGCTCCG
DNA 2: CGGAGCACATCGTATGATCGCGGGAA
B2: srbApmm0mut (srbA* mutated site) (dsDNA)
DNA 1: TTCCCGCGATATAACATAGTGCTCCG
DNA 2: CGGAGCACTATGTTATATCGCGGGAA
B3: hemApmm12 (hemA -338 to -347) (dsDNA)
DNA 1: CTGAGGCAATGAGGCGATGAGGCAAC
DNA 2: GTTGCCTCATCGCCTCATTGCCTCAG
B4: hapXpmm11 (hapX -774 to -783) (dsDNA)
DNA 1: GCCTTTGAATGGGAGGATTCTTTATT
DNA 2: AATAAAGAATCCTCCCATTCAAAGGC
B5: hemApmm11 (hemA -527 to -518) (dsDNA)
DNA 1: TCCCCAGTATCGGATCATACGGCTAC
DNA 2: GTAGCCGTATGATCCGATACTGGGGA
B6: hapXpmm12 (hapX -1340 to -1331) (dsDNA)
DNA 1: CAGATAAGATCAGATGATGAAGGGAT
DNA 2: ATCCCTTCATCATCTGATCTTATCTG

In this series the target is T1, SrbA161-267 (bHLHZ DNA-binding domain). In words: SPR; SPR kinetics on immobilized biotinylated DNA duplexes; buffer, salt, pH and temperature not given in the material (details in Additional file 2). The note with it: protein: recombinant; chain copies: 2; label: 5' biotin on strand 1; blunt.
What is called Kd is the concentration at which binding is half-saturated. Regarding B1, the Kd was 0.63 ± 0.04 nM.
As for B2, the figure is 386 ± 7.3 nM; as for B3, 35.7 ± 0.52 nM.
On to B4, for which the dissociation constant (Kd) stood at 282 ± 5.1 nM.
Consider B5, for which the Kd worked out at 4.18 ± 0.41 nM.
As for B6, the figure is 4.64 ± 0.03 nM.

Values taken from publication PMC3305660, “Regulatory interactions for iron homeostasis in Aspergillus fumigatus inferred by a Systems Biology approach”.
